Laboratory results: patent publication US20230416378A1 (Boehringer Ingelheim, published 2023)
Where a chain is given by its changes, count along the chain named.

Experiments:
[1] = molecular target: T1, Neuropilin-1 (Nrp1) endogenously expressed on human endothelial cells (HRMEC, HUVEC) (human, UniProt O14786 22-923); experiment: cell-based or functional assay
[2] = molecular target: T1, Neuropilin-1 (Nrp1) endogenously …; experiment: cell-based or functional assay; remark: listed apart in the source
gerbil Nrp1 = molecular target: T2, gerbil Nrp1 (gerbil); experiment: SPR, antibody captured on Protein A/G (GLM sensorchip), Nrp1 as analyte 0-100 nM, 1:1 Langmuir fit
T2 construct: also called gerbil Nrp1A
Experimental: (§1) The running buffer for this experiment and all dilutions (except where stated) were done in PBS-T-EDTA with 0.01% Tween20 [100 ul of 100% Tween20 was added to 2L of PBS-T-EDTA to make final Tween 20 concentration of 0.01%]. The GLM sensorchip was normalized and pre-conditioned as per the manufacturer's recommendations. […] The sensorchip was deactivated with 1M ethanolamine HCl in the horizontal direction for 300 sec at a flowrate of 30 μl/min. The sensorchip was stabilized with 18 sec of 0.85% phosphoric acid at a flowrate of 100 μl/min 3 times horizontally and 3 times vertically.
(§2) The baseline was stabilized by injecting PBS-T-EDTA for 60 sec at a flowrate of 100 μl/min horizontally with dissociation of 120 sec. The analyte was injected horizontally over the captured antibody for 300 sec at a flowrate of 30 μl/min and a dissociation for 1800 sec. The concentrations of the analytes were 0 nM, 6.25 nM, 12.5 nM, 25 nM, 50 nM, and 100 nM. The surface was regenerated by injecting 0.85% phosphoric acid for 18 sec at a flowrate of 100 μl/min one time horizontally and one time vertically. PBS-T-EDTA was injected for 60 sec at a flowrate of 100 μl/min one time vertically and one time horizontally.
(§3) The interspot (interactions with sensor surface) and blank (PBS-T-EDTA with 0.01% Tween20 or 0 nM analyte) were subtracted from the raw data.

[3] = molecular target: T3, human Nrp1 (soluble analyte in SPR and BLI) (human, UniProt O14786 22-856, limits assumed); experiment: as above
T3 construct: also called hNrp1; Human Nrp1A
T3 sequence (O14786 22-856 V179A limits assumed): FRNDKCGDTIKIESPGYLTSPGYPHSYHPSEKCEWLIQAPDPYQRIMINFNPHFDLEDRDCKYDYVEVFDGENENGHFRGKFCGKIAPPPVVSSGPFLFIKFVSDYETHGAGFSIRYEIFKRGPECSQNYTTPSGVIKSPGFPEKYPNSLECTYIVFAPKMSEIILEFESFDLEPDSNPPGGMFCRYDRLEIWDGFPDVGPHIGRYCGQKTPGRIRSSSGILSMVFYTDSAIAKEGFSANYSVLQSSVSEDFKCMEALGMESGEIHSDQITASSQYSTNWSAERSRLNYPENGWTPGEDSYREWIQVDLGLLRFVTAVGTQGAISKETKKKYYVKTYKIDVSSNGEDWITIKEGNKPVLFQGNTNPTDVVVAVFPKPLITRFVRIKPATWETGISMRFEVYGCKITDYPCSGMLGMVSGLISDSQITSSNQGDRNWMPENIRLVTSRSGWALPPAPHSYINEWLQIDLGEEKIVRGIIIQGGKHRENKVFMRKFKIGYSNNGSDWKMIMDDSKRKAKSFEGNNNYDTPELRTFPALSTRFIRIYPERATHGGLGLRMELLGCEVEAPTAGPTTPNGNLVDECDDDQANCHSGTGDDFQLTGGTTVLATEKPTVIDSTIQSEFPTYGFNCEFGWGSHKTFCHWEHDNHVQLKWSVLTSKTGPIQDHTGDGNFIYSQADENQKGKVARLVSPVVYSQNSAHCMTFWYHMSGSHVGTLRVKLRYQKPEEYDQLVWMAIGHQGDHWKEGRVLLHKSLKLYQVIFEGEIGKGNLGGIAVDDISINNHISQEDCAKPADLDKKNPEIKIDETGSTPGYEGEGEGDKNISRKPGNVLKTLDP
Experimental: as §1, §2, §3

rat Nrp1 = molecular target: T4, rat Nrp1 (rat, UniProt Q9QWJ9 22-855, limits assumed); experiment: as above
T4 construct: also called rat Nrp1A
T4 sequence (Q9QWJ9 22-855 limits assumed): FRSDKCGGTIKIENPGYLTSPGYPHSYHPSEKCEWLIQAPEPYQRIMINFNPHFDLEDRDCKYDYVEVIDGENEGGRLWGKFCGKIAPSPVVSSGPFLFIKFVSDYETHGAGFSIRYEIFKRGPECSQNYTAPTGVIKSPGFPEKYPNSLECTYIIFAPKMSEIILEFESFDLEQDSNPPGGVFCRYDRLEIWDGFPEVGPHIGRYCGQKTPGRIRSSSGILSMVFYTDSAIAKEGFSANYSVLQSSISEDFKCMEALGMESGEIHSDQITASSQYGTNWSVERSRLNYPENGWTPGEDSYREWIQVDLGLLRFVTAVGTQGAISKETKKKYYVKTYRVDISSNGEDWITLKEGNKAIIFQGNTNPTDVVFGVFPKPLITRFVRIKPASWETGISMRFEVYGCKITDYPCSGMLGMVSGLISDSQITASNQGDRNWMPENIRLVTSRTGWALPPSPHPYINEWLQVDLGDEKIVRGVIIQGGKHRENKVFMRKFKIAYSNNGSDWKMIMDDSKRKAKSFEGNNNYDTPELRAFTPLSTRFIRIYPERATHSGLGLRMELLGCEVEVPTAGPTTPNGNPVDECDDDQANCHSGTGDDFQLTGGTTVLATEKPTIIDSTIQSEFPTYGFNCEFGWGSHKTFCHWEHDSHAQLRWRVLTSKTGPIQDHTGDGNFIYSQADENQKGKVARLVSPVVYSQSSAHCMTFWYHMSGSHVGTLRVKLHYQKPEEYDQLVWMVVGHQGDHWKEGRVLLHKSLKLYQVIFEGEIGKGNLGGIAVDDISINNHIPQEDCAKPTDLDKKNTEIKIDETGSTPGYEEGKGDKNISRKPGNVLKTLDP
Experimental: as §1, §2, §3

mouse Nrp1 = molecular target: T5, mouse Nrp1 (mouse, UniProt P97333 22-856, limits assumed); experiment: as above
T5 construct: also called mouse Nrp1A
T5 sequence (P97333 22-856 limits assumed): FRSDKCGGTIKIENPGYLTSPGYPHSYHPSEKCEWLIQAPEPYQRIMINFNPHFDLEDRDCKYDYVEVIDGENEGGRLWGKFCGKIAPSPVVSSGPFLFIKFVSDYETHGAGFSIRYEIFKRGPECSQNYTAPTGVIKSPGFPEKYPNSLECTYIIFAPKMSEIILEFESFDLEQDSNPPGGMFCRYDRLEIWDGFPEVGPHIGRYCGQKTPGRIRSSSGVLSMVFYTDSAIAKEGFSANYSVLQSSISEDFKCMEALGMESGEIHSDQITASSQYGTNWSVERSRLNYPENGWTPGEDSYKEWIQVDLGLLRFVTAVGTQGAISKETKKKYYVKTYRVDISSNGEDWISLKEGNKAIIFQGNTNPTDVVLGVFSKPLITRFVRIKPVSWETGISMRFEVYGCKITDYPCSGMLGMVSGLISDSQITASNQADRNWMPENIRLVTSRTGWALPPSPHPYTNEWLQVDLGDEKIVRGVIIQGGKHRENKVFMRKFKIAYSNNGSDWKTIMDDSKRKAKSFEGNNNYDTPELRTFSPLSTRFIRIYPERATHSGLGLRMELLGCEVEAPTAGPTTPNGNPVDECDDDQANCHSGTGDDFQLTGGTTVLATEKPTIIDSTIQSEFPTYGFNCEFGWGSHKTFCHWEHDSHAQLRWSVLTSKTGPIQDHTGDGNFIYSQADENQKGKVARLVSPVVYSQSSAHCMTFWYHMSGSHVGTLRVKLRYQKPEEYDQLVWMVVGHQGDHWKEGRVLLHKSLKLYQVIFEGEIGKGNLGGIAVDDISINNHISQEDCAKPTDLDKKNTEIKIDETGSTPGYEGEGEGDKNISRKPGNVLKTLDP
Experimental: as §1, §2, §3

cyno Nrp1 = molecular target: T6, cyno Nrp1 (cyno, UniProt A0A2K5V5E7 24-858); experiment: as above
T6 construct: also called cyno-Nrp1A
T6 sequence (A0A2K5V5E7 entry or part of it): as the sequence (O14786 22-856 V179A limits assumed) above, with H77R, F78L, R79W, P96Q, L258V, V341I, M396L, I460V, L578P counted along it
Experimental: as §1, §2, §3

[4] = molecular target: T3, human Nrp1 (soluble analyte in SPR and …); experiment: SPR, antibody captured on Protein A/G (GLM sensorchip), human Nrp1A as analyte 0-100 nM, 1:1 Langmuir fit
Experimental: The running buffer for this experiment and all dilutions (except where stated) were done in PBS-T-EDTA with 0.01% Tween20 [100 ul of 100% Tween20 was added to 2L of PBS-T-EDTA to make final Tween 20 concentration of 0.01%]. The GLM sensorchip was normalized and pre-conditioned as per the manufacturer's recommendations. The sensorchip was activated with equal mixture of EDC/s-NHS in the horizontal direction for 300 sec at a flow rate of 30 μl/min and immobilized with Recombinant Protein NG (60 μg/ml in 10 mM acetate pH 4.5) in the horizontal direction for 300 sec at a flowrate of 30 μl/min. The sensorchip was deactivated with 1M ethanolamine HCl in the horizontal direction for 300 sec at a flowrate of 30 μl/min. The sensorchip was stabilized with 18 sec of 0.85% phosphoric acid at a flowrate of 100 μl/min 3 times horizontally and 3 times vertically.
Human Nrp1A was prepared in PBS-T-EDTA buffer at concentrations of 100, 50, 25, 12.5, 6.25, and 0 nM. A PBS-T-EDTA buffer injection was used as a double reference for the kinetic data analysis. Each of the human Nrp1A solutions and PBS-T-EDTA buffer were injected simultaneously over the 6 horizontal channels for 5 min at a flow rate of 40 μL/min followed by 30 min dissociation phase. The surfaces were regenerated by an 18 sec injection of 0.85% Phosphoric acid at a flow rate of 100 μL/min followed by an injection of sec PBS-T-EDTA at a flow rate of 100 μL/min. The interspot (interactions with sensor surface) and blank (PBS-T-EDTA with 0.01% Tween20 or 0 nM analyte) were subtracted from the raw data.

T1 sequence (O14786 22-923 V179A limits assumed): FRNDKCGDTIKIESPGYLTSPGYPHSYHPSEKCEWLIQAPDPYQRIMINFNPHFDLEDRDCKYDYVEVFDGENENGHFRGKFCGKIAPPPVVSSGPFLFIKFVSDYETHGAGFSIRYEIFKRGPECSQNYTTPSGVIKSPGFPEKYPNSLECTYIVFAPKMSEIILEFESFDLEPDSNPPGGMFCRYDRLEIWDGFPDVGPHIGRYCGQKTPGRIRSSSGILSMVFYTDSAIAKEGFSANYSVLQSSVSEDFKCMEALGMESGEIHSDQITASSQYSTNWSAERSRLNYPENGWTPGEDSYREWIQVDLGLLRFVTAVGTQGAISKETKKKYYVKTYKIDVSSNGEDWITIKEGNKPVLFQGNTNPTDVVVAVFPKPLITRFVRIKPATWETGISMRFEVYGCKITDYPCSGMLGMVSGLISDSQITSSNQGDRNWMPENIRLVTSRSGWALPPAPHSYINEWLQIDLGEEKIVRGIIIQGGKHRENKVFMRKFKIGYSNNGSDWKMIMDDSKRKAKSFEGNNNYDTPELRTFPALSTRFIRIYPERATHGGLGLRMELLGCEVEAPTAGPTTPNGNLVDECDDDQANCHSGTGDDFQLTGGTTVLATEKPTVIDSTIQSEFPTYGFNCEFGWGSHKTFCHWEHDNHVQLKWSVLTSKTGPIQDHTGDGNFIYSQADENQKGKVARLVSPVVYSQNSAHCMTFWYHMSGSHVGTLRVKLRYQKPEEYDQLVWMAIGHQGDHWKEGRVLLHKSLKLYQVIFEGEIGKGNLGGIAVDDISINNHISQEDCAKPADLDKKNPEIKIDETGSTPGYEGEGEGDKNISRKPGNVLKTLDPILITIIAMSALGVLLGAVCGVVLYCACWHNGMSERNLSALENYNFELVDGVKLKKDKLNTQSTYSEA

B1: Antibody of the invention (clone I), humanized anti-Nrp1A antibody (antibody, human IgG1, kappa, L234A L235A, V domains shown)
VH: EVQLLESGGGLVKPGGSLRLSCAASGFTFSSYAMSWVRQAPGKGLEWVSSISRTGYTYYAESVKGRFTISRDESKQTLYLQMQSLKTEDTAVYYCARVGTAFDYWGQGTLVTVSS
VL: not shown
notes: also called exemplary antibody of the invention; lead compound
- Collapse assay IC50 [1]: 0.098 nM
- VEGF induced cell integrity loss IC50 [2]: 0.74 nM
- Kd (gerbil Nrp1): 13.9 nM
- Kd [3]: 11.1 nM
- Kd (rat Nrp1): 10.5 nM
- Kd (mouse Nrp1): 7.7 nM
- Kd (cyno Nrp1): 15.2 nM
- Kd [4]: 11.1 nM

B2: YW64.3, comparative antibody directed against Nrp1A (antibody, human IgG1, kappa, L234A L235A, V domains shown)
VH: EVQLVESGGGLVQPGGSLRLSCAASGFSFSSEPISWVRQAPGKGLEWVSSITGKNGYTYYADSVKGRFTISADTSKNTAYLQMNSLRAEDTAVYYCARWGKKVYGMDVWGQGTLVTVSS
VL: DIQMTQSPSSLSASVGDRVTITCRASQSISSYLAWYQQKPGKAPKLLIYGASSRASGVPSRFSGSGSGTDFTLTISSLQPEDFATYYCQQYMSVPITFGQGTKVEIKR
notes: Made for comparison after WO2007056470; also called anti-Nrp1A (YW64.3); Clone YW64.3
- Collapse assay IC50 [1]: 0.056 nM
- VEGF induced cell integrity loss IC50 [2]: 12.6 nM
- Kd [4]: 11.3 nM

B3: YW107.4.87, comparative antibody directed against Nrp1B (antibody, human IgG1, kappa, V domains shown)
VH: EVQLVESGGGLVQPGGSLRLSCAASGFTFSSYAMSWVRQAPGKGLEWVSQISPAGGYTNYADSVKGRFTISADTSKNTAYLQMNSLRAEDTAVYYCARGELPYYRMSKVMDVWGQGTLVTVSS
VL: B2 VL with S28Y, I29F, M92L, S93G, V94S, I96P
notes: Made for comparison after WO2007056470; also called anti-Nrp1B (YW107.4.87)
- VEGF induced cell integrity loss IC50 [2]: 13.7 nM
- Kd [4]: 37.5 nM
